This note sets out measurements from patent publication US20120178908A1 (Novo Nordisk, published 2012).

One assay addresses T1, hTLT-1 ECD-HPC4 S119A (human, UniProt Q86YW5 16-162).
T1 construct: As m27; also called Ala mutant 33
T1 chain: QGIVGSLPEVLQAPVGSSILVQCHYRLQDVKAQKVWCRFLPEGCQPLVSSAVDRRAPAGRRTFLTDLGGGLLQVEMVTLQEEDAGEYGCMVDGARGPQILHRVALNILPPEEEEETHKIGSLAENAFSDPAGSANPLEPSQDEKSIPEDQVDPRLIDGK
Put plainly: SPR (ProteOn), mAb captured by anti-hFc, 100 nM mutant, signal 10 s after injection normalised to captured mAb. The procedure:
(§1) Each anti-body was diluted in 10 mM sodium acetate pH 5.0 to a concentration of […], and was immobilized to an individual flow cell at 30 μl/min for 240s. The antibodies were immobilized to flow cells A1-A6 (horizontal direction). After immobilization, the active sites on the flow cell were blocked with 1 M ethanolamine. The final immobilization level of capture antibody typically ranged from approximately 9,000 to 10,000 RU in one experiment. Capture of the anti-TLT1 antibodies 0197-0000-0023, 0197-0000-0051, 0197-0000-0061 and 0197-0000-0062 was conducted by diluting to […] into HBS-EP buffer (10 mM HEPES, 150 mM NaCl, 3 mM EDTA, 0.05% surfactant P20, pH 7.4) and injected at 30 μl/min for 60s in vertical direction, creating interspot reference points with only anti-human Fc antibodies. The final capture level of test antibodies typically ranged from approximately 200 to 300 RU in one experiment. Binding of wt or Ala mutant hTLT-1 ECD-HPC4 protein was conducted by injecting over parallel flow cells in horizontal direction to allow for comparative analyses of binding to different captured anti-TLT1 antibodies relative to binding to the interspot references. Each hTLT-1 ECD-HPC4 protein was diluted to 100 nM, based on the calculated average Mw, into HBS-EP buffer and injected at 30 μl/min for 240s. The GLM chip was regenerated after each injection cycle of analyte via one 18 s injection of 1 M Formic acid followed by a 18s injection of 50 mM NaOH at 100 μl/min. This regeneration step removed the anti-TLT1 antibody and any bound TLT1 from the immobilized capture antibody surface, and allowed for the subsequent binding of the next test sample pair.
(§2) Data analysis was performed using the ProteOn Manager™ Software. No significant non-specific binding to the interspot control surfaces was observed. Binding curves were processed by double referencing (subtraction of interspot control surface signals as well as blank buffer injections over captured anti-TLT1 antibodies). This allowed correction for instrument noise, bulk shift and drift during sample injections. Binding signal at 10 s after stop of analyte injection was normalized to level of captured anti-TLT1 antibody and presented as binding relative to wt hTLT-1 ECD-HPC4 protein.

For another assay, the target named is T2, hTLT-1 ECD-HPC4 R117A (human, UniProt Q86YW5 16-162).
T2 construct: As m27; also called Ala mutant 32
T2 chain: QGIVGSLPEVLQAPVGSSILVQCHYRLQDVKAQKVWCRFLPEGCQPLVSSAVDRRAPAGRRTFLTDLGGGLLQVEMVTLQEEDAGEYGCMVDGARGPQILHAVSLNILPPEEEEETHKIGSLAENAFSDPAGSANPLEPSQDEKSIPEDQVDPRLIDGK
The description is as above. The procedure:
as §1, §2

The target of a further assay is T3, hTLT-1 ECD-HPC4 F54A (human, UniProt Q86YW5 16-162).
T3 construct: As m27; also called Ala mutant 12
T3 chain: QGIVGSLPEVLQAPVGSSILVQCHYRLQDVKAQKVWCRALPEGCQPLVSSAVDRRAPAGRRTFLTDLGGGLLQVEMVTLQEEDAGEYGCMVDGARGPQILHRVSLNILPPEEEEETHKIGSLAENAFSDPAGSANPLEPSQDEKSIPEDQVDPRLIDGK
The description is as above. Here is the method:
as §1, §2

The target of another assay is T4, hTLT-1 ECD-HPC4 M91A (human, UniProt Q86YW5 16-162).
T4 construct: As m27; also called Ala mutant 24
T4 chain: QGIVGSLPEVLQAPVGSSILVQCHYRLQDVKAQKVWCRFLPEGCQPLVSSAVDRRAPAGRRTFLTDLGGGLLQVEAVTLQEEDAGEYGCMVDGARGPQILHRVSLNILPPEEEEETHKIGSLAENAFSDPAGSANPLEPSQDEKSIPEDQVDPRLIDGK
The description is as above. Here is the method:
as §1, §2

Assay [1] addresses T5, TLT1 (human TLT-1, reagent of the SPR studies, source NN) (human, UniProt Q86YW5 16-162, limits assumed).
T5 sequence: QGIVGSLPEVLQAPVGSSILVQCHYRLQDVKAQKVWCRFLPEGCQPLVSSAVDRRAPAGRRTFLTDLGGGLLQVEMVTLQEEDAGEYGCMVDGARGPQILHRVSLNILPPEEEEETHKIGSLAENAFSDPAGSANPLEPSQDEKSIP
Put plainly: SPR (Biacore), mAb immobilised directly on CM5, TLT1 as analyte. Here is the method: The mAbs of interest were either immobilized directly to a CM5 chip or by capture via a human Fc capture mAb immobilized to a CM5 chip.
Direct capture: The TLT-1 mAbs were immobilised to a level of approx 500-1000 RU on a CM5 chip (50 μg/ml diluted in Na-acetate, pH 4.0) using the standard procedure recommended by the supplier. Two-fold dilutions of TLT1 from 200 nM to 0.2 nM were tested for binding to the mABs. Running and dilution buffer: 10 mM HEPES, 150 mM, 0.005% p20, pH 7.4. Regeneration was obtained by 10 mM Glycine, pH 1.7.

Another assay addresses T6, hTLT-1 ECD-HPC4 H116A (human, UniProt Q86YW5 16-162).
T6 construct: As m27; also called Ala mutant 31
T6 chain: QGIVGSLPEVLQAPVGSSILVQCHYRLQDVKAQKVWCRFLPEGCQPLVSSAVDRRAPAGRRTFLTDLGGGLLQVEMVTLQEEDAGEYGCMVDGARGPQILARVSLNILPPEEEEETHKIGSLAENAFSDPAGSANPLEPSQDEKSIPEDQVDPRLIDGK
Put plainly: SPR (ProteOn), mAb captured by anti-hFc, 100 nM mutant, signal 10 s after injection normalised to captured mAb. Here is the method: as §1, §2

Another assay has as its target T7, hTLT-1 ECD-HPC4 L42A (human, UniProt Q86YW5 16-162).
T7 construct: As m27; also called Ala mutant 8
T7 chain: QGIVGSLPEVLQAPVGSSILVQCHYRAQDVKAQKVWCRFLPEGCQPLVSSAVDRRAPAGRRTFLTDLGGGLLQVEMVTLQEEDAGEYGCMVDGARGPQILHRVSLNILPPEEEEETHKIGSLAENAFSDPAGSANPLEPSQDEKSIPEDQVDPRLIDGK
The description is as above. Here is the method: as §1, §2

The next assay addresses T8, hTLT-1 ECD-HPC4 R110A (human, UniProt Q86YW5 16-162).
T8 construct: As m27; also called Ala mutant 30
T8 chain: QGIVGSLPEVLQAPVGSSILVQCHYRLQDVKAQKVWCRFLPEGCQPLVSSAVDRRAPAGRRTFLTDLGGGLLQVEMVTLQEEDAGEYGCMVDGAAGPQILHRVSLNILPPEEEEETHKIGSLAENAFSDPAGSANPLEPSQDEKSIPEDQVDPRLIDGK
The assay is described as above. The procedure:
as §1, §2

The next assay concerns the target T9, hTLT-1 ECD-HPC4 R41A (human, UniProt Q86YW5 16-162).
T9 construct: As m27; also called Ala mutant 7
T9 chain: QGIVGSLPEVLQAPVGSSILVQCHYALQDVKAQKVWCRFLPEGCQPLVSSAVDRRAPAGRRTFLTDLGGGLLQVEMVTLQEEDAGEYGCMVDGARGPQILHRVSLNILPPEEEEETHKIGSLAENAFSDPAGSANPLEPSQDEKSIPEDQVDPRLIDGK
The description is as above. The procedure:
as §1, §2

The next assay deals with T10, hTLT-1 ECD-HPC4 Q43A (human, UniProt Q86YW5 16-162).
T10 construct: As m27; also called Ala mutant 9
T10 chain: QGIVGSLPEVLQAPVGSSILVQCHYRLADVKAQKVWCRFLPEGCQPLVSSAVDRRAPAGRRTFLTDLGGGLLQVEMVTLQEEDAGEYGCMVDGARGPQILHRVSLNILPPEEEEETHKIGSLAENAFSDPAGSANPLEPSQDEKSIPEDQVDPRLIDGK
The assay is described as above. Here is the method: as §1, §2

The target in a further assay is T11, hTLT-1 ECD-HPC4 K46A (human, UniProt Q86YW5 16-162).
T11 construct: As m27; also called Ala mutant 10
T11 chain: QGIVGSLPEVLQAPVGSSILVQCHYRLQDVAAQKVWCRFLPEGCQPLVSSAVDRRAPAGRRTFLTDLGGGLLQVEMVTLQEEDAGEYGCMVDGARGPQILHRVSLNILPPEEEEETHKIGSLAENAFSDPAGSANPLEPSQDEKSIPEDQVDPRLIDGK
The assay is described as above. Here is the method:
as §1, §2

B1: mAb 0051 HC2; LC2 (antibody, V domains shown)
VH: QVQLEQSGAELVRPGVSVKISCKGSGYTFTDYSMHWVKQSHAKSLEWIGVISTYYGDVRYNQKFKGKATMTVDKSSSTAYMALARLTSEDSAIYYCARAPMITTGAWFAYWGQGTLVTVSA
VL: SIVMTQTPKFLLVSAGDRVTITCKASQSVSNDVAWYQQKPGQSPKLLINYASSRYTGIPDRFTGSGYGTDFTFTISTVQAEDLAVYFCQQDYSSPYTFGGGTKLEIER
notes: also called 0197-0000-0051
Take B1: the “binding relative to wt hTLT-1 ECD-HPC4” value in the assay with hTLT-1 ECD-HPC4 S119A was < 0.6 fraction of wt binding; with hTLT-1 ECD-HPC4 R117A it was < 0.2 fraction of wt binding; with hTLT-1 ECD-HPC4 F54A, < 0.4 fraction of wt binding; in the assay with hTLT-1 ECD-HPC4 M91A, < 0.2 fraction of wt binding. In assay [1], this molecule yielded a Kd of 19.3 nM. This molecule also showed a koff in [1] of 0.00472 s⁻¹. Further, in assay [1], the kon turned out to be 245000 M⁻¹ s⁻¹.

B2: mAb 0062 HC2; LC2 (antibody, V domains shown)
VH: QVQLQQSGAEPMKPGASVKISCKATGYTFSSHWIEWIKQRPGHGLEWIGEILPGSGNTNYNEKFKGKATFTADTSSNTAYMQLSSLTSEDSAVYYCARGYYGLNYDWYFDVWGAGTTVTVSS
VL: DIQMTQTTSSLSASLGDRVTISCRASQDISNYLNWYQQKPDGTVKLLIFYTSRLHSGVPSRFSGSGSGTDYSLTISNLEPEDIATYYCQQDTKLPYTFGGGTKLEMKR
notes: also called 0197-0000-0062; 0052HC.C91Y + 0052LC
As to B2, the “binding relative to wt hTLT-1 ECD-HPC4” value is < 0.6 fraction of wt binding with hTLT-1 ECD-HPC4 H116A; < 0.6 fraction of wt binding with hTLT-1 ECD-HPC4 L42A; < 0.6 fraction of wt binding with hTLT-1 ECD-HPC4 F54A; < 0.2 fraction of wt binding in the assay with hTLT-1 ECD-HPC4 R110A; < 0.2 fraction of wt binding with hTLT-1 ECD-HPC4 R41A; < 0.4 fraction of wt binding with hTLT-1 ECD-HPC4 Q43A. In the assay with hTLT-1 ECD-HPC4 M91A, the “binding relative to wt hTLT-1 ECD-HPC4” value is < 0.4 fraction of wt binding. Further, the Kd in [1] turned out to be 4.12 nM. The molecule further gave a koff in assay [1] of 0.00134 s⁻¹. In assay [1], the kon was 326000 M⁻¹ s⁻¹.

B3: mAb 0023 HC2; LC2 (antibody, V domains shown)
VH: EVRLVESGGGLVQPGGSLKLSCATSGFTFSDYFMYWIRQTPEKRLEWVAYISNGGDSSSYPDTVKGRFTISRDNAKNTLYLQMSRLKSEDTAMYYCATNKNWDDYYDMDYWGQGTSVTVSS
VL: DIVVSQSPSSLAVSAGEKVTMSCKSSQSLLNSRTRKNYLAWYQQKPGQSPKLLIYWASTRESGVPDRFTGSGSGTDFTLTISSVQAEDLAVYYCKQSYNLLTFGAGTKLELKR
notes: also called 0197-0000-0023
B3: the “binding relative to wt hTLT-1 ECD-HPC4” value with hTLT-1 ECD-HPC4 K46A is < 0.2 fraction of wt binding; in the assay with hTLT-1 ECD-HPC4 L42A, < 0.2 fraction of wt binding; with hTLT-1 ECD-HPC4 R110A it was < 0.2 fraction of wt binding; with hTLT-1 ECD-HPC4 Q43A, < 0.2 fraction of wt binding; with hTLT-1 ECD-HPC4 M91A it was < 0.4 fraction of wt binding. In assay [1], binding was put at a Kd of 4.36 nM. The molecule further yielded a koff in [1] of 0.00125 s⁻¹. The kon in assay [1] came out at 287000 M⁻¹ s⁻¹.
